This series addresses ubiquitin, P0CG48.

Sequence of ubiquitin, P0CG48 (P0CG48 whole entry, looked up): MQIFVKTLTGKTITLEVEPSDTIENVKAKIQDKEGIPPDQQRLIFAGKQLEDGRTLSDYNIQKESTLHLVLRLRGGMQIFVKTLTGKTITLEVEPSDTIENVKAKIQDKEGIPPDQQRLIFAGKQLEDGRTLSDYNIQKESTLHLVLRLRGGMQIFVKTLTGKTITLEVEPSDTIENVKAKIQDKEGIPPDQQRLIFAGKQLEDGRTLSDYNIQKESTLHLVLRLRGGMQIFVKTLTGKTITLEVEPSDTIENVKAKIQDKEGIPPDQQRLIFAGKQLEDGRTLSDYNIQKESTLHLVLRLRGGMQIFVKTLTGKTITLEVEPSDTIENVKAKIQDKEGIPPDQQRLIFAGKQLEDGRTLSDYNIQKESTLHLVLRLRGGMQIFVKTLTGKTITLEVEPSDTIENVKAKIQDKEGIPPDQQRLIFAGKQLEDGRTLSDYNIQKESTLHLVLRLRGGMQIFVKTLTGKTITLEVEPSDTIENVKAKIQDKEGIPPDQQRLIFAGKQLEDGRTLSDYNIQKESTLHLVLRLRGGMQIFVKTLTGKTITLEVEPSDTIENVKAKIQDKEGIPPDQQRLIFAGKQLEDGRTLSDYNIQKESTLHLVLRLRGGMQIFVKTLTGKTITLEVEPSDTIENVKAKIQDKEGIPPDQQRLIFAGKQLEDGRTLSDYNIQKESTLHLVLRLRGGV

B1: TRIM21 RING E13A (protein)
chain: MASAARLTMMWEAVTCPICLDPFVEPVSIECGHSFCQECISQVGKGGGSVCPVCRQRFLLKNLRPNRQLANMVNNLKEISQEARE
Consider B1, for which the “Ube2W-mediated TRIM21 RING monoubiquitination time-course” value is “TRIM21 mutants E13A and E13R both showed a slight reduction in activity”.

B2: TRIM21 RING E13R (protein)
chain: MASAARLTMMWERVTCPICLDPFVEPVSIECGHSFCQECISQVGKGGGSVCPVCRQRFLLKNLRPNRQLANMVNNLKEISQEARE
B2: the “Ube2W-mediated TRIM21 RING monoubiquitination time-course” value is “TRIM21 mutants E13A and E13R both showed a slight reduction in activity”.

These data come from US20250376495.
